From paper PMC4837482, “The complex binding mode of the peptide hormone H2 relaxin to its receptor RXFP1” (Nature Communications, 2016)
Changes are numbered by the printed parent chain.

Assays:
Experiment in all cases: cAMP activity assay (pCRE β-galactosidase reporter), transfected HEK293T cells
Type in all cases: cell-based
RXFP1 N43N44-AA = biological target: T1, RXFP1 N43N44-AA (Homo sapiens, UniProt Q9HBX9, N65A/N66A)
T1 construct: transiently transfected human embryonic kidney (HEK) 293T cells expressing full-length RXFP1 and mutants; expressed in transfected cells; host or cells: HEK293T
T1 sequence (Q9HBX9 23-757 N65A/N66A limits assumed): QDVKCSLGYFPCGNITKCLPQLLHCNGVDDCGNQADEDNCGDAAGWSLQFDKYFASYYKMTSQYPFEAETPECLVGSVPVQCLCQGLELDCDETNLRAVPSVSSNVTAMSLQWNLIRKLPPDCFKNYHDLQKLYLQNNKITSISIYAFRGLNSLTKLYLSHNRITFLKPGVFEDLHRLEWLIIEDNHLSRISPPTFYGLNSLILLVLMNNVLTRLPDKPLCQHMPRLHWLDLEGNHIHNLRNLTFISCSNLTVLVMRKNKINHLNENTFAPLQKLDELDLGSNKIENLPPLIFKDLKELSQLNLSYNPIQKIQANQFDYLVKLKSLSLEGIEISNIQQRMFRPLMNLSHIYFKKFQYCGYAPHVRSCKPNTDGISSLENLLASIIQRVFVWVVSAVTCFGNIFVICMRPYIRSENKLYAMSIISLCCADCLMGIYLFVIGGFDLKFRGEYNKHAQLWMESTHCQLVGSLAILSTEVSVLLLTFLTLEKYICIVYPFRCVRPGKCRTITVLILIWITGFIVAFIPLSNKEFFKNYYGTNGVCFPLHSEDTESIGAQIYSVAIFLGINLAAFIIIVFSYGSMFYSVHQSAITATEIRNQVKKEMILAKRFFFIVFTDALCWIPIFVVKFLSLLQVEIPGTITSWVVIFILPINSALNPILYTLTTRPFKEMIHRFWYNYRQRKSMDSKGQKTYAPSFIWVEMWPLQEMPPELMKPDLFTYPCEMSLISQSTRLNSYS
Outline: (§1)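 H2 relaxin dilutions in minimal media with 1% DMSO; 5 μM Forskolin as positive control, media/1% DMSO as negative. After freezing at −80 °C, cells lysed in pH 8.0 phosphate buffers and chlorophenol red-β-D-galactopyranoside added; absorbance read at 570 nm. Responses given as % of 5 μM Forskolin maximum.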

RXFP1 K52A = biological target: T2, RXFP1 K52A (Homo sapiens, UniProt Q9HBX9, K74A); details: construct K52A, ±s.e.m.
T2 construct: cells expressing full-length RXFP1 and mutants; expressed in transfected cells; host or cells: HEK293T
T2 sequence (Q9HBX9 23-757 K74A limits assumed): T1 sequence (Q9HBX9 23-757 N65A/N66A limits assumed) with A43N, A44N, K52A
Outline: as §1

RXFP1 C40A^ins = biological target: T3, RXFP1 C40A^ins (Homo sapiens, UniProt Q9HBX9, INS62A); details: construct C40A^ins
T3 construct: cells expressing full-length RXFP1 and mutants; expressed in transfected cells; host or cells: HEK293T
T3 sequence (Q9HBX9 with tags, fused parts or gaps INS62A limits assumed): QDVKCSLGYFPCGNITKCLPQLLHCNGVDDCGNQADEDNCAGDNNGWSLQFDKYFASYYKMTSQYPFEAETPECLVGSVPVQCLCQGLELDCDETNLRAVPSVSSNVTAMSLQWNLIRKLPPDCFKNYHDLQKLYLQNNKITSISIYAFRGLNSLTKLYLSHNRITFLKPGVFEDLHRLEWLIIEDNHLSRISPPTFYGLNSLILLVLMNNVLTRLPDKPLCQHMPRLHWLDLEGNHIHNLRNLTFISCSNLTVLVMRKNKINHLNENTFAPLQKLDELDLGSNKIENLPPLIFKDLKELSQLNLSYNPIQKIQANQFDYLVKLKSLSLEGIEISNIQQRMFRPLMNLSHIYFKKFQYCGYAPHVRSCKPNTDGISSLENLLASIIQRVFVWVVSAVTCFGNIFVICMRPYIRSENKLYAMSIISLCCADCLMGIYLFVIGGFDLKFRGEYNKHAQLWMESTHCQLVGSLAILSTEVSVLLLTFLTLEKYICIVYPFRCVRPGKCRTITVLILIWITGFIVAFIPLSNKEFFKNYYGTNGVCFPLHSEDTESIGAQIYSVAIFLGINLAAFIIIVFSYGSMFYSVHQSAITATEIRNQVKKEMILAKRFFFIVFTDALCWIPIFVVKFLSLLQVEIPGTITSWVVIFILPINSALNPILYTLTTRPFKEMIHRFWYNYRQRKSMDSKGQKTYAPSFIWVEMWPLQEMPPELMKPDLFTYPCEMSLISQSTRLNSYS
Outline: as §1

[1] = percentage of maximum response to 5 μM Forskolin

## H2 relaxin: two-chain 6-kDa peptide hormone structurally related to insulin; recombinant human gene-2 H2 relaxin provided by Corthera
RXFP1 N43N44-AA; N43A/N44A RXFP1 versus wild-type RXFP1
  loss of H2 relaxin-stimulated cAMP activity: 500 fold
RXFP1 N43N44-AA; construct N43N44-AA, cAMP reporter, ±s.e.m.
  H2 relaxin pEC50: 8.29±0.63 (3)
RXFP1 N43N44-AA; construct N43N44-AA, percentage of maximum response to 5 μM Forskolin, ±s.e.m.
  H2 relaxin Emax: 118.90±12.81 (3) %
RXFP1 K52A; cAMP reporter
  H2 relaxin pEC50: 11.06±0.11
RXFP1 K52A; [1]
  H2 relaxin Emax: 154.63±33.73 (5) %
RXFP1 C40A^ins; cAMP reporter
  H2 relaxin pEC50: No activity
RXFP1 C40A^ins; [1]
  H2 relaxin Emax: No activity
